We go through 1 substance from article PMC2119506.

This experiment has as its target CSVTCG binding protein (human (endogenous in A549)). Nature of the experiment: radioligand binding.

In turn, “thrombospondin (from UniProt P07996 19-1170) (natural protein)” registered a percent inhibition of binding of 64 % inhibition.
